Test results as given in paper PMC6667744 (Pharmacology Research & Perspectives, 2019).

Target: Nanoluc‐RXFP2 (UniProt Q8WXD0 1-754)
Assay: FRET or BRET

Sequence of Nanoluc‐RXFP2 (Q8WXD0 whole entry): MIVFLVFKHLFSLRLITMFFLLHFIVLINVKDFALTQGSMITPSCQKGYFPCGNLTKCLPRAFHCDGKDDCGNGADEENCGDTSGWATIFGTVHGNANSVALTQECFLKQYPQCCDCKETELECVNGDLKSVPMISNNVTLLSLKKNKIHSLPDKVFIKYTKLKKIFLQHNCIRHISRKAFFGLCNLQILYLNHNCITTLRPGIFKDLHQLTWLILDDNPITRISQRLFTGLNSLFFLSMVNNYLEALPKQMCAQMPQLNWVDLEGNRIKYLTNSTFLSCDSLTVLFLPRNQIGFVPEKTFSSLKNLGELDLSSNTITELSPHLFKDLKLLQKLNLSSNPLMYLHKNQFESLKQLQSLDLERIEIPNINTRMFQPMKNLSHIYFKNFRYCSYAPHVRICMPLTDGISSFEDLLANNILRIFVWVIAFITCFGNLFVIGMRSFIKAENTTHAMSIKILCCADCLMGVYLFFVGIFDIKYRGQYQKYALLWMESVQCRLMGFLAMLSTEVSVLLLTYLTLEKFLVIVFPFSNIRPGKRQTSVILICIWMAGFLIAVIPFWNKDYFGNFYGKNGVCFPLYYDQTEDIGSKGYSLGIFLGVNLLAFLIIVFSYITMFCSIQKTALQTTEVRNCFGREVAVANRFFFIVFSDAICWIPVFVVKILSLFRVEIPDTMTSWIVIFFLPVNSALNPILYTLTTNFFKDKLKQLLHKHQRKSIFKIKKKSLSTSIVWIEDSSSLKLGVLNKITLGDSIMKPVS

B1: mCitrine‐RXFP1 (receptor)
chain: QDVKCSLGYFPCGNITKCLPQLLHCNGVDDCGNQADEDNCGDNNGWSLQFDKYFASYYKMTSQYPFEAETPECLVGSVPVQCLCQGLELDCDETNLRAVPSVSSNVTAMSLQWNLIRKLPPDCFKNYHDLQKLYLQNNKITSISIYAFRGLNSLTKLYLSHNRITFLKPGVFEDLHRLEWLIIEDNHLSRISPPTFYGLNSLILLVLMNNVLTRLPDKPLCQHMPRLHWLDLEGNHIHNLRNLTFISCSNLTVLVMRKNKINHLNENTFAPLQKLDELDLGSNKIENLPPLIFKDLKELSQLNLSYNPIQKIQANQFDYLVKLKSLSLEGIEISNIQQRMFRPLMNLSHIYFKKFQYCGYAPHVRSCKPNTDGISSLENLLASIIQRVFVWVVSAVTCFGNIFVICMRPYIRSENKLYAMSIISLCCADCLMGIYLFVIGGFDLKFRGEYNKHAQLWMESTHCQLVGSLAILSTEVSVLLLTFLTLEKYICIVYPFRCVRPGKCRTITVLILIWITGFIVAFIPLSNKEFFKNYYGTNGVCFPLHSEDTESIGAQIYSVAIFLGINLAAFIIIVFSYGSMFYSVHQSAITATEIRNQVKKEMILAKRFFFIVFTDALCWIPIFVVKFLSLLQVEIPGTITSWVVIFILPINSALNPILYTLTTRPFKEMIHRFWYNYRQRKSMDSKGQKTYAPSFIWVEMWPLQEMPPELMKPDLFTYPCEMSLISQSTRLNSYS
With B1 the “BRET signal relative to that of Nanoluc-RXFP1 with mCitrine-RXFP1” value was ~75%.
